This data set is described as follows: label from the status in PepcDB records.
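Note: failed if final PepcDB status was selected cloned or expressed and not failed if soluble or beyond.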

Consider “MDHVQISVQKLDEILKLNGSALLNRVTLDIHQQLKSHCTCVVEVAHLQHAAHTISFASGGEISDNLSYHLSGTPCEKVAKDIGEHIFYQDQVYKRFPEDQMFQDDGVQAYLGLPLKTQSGEVLGILLSTFTRSIHAKEAQDVLELHRFYANVIIHSLREKWVSERSDKLLNQLSYEVSHDNLTGLLNRSCLADTLETLTQQATRPFNLAYLDIDNFKSINDINGNYIGDQIIKFTANAIQQSLSSPNNAFRVAGDEFAFITYDEDPVAVCQEVLDKIEAGYSDKSNRISFTVSIGIARAPVHMLNSDELILNASLALKDCKKHRDTRIQHYDTHLSALYHRQTQLIEAMRIQLSTSITESHELYVVLQPIVDVNNDRWDYFEILARWNSSVYGNISPAEFIEAAEQSGLIIELGERIIELACIAKQELEAHLGYTVKLSINCSAHELVDSNRYINHLTTLLERYGHDASDFVIELTETVLLSQSGREQMVLNSLRYLGFKVALDDFGTGYSSLNYIHNYPIDSIKIDATFVRNMLSNKTSEQVVYLIAQLAQLLDVDLIAEGVEDDRALNKLIDMGCHYIQGYFYSRPHNVDELVHMINDRQVKRA”, for which the protein production result is given as “failed”.

Consider “MDIISSYSPIHVVGGGLAGSEAAWQIASAGVPVILHEMRGVRGTDAHKTDGLAELVCSNSFRSDDATSNAVGVIHAEMRMAGSLIMAAADRHQVPAGGALAVDRDGFSDAVTRAIHDHPLITVMREEITGLPPSDWDLAIVATGPLTAPSLAAAIQAETGEDSLAFFDAIAPIVYRESIDMDICWYQSRYDKVGPGGTGKDYINCPMDEAQYNAFVNALIAGDTVGFKEWEGTPYFDGCLPIEVMAERGRETLRHGPMKPMGLTNAHNPTVKAYAVVQLRQDNALGTLYNMVGFQTKLKYGAQAEIFRMIPGLENAEFARLGGLHRNTYINSPTLLDPSLTLKSRPGLRFAGQITGCEGYVESASVGLMAGRFAAAERKGEAISLPPATTALGSLLGHITGGHIVTDEEPGKRSFQPMNINFGLFPELEPGSIVKPEGVKRFRGKDKTIMKRQLIARRALADCAAWLGQTRTLAERA”, for which the protein production result was “failed”.

As to “MDILDLNKAQAVQQNEQEVEDKERESKEPVVLEDLSALAWLELEEFSRLSGLPKERILELVNLGKIKSKISSNKLLIDASSGTNALIKKVENSLISMDMNGRSLEPVFVEKTINTILNLHDKVIGAKDETISAFKNENMFLKDALISMQEVYEEDKKTIDLLRDELNQAREEIEFMKRKYRLMWGKVADMSSVNKK”, the protein production result is listed as “failed”.

Turning to “MDINMFILYFFIYSVLGWAWEEVFCSISEKKLVYRGFLYGPYCPIYGFGVTTVLMMILPFQNNLWALFIFSMIICTVIEYVTATILEALFHTTWWDYHNWPLNVKGRICLPISIFWGFACIIVVRFLHPLVTEFADWVLSWGGWIIPALIVVLMLIDTIKSVTSMLSFQKVLAEFNEKLTAQANELKASVKERAKEFEEGLLKKQENVDMKIAEMEAKRKQDKELAASMRKLKFNERRMLKSFPKMKVKRAAPFKNFNKSILRVDKQKRK”, the protein production result is on record as “failed”.

Take “MDINNKARIHWACRRGMRELDISIMPFFEHEYDSLSDDEKRIFIRLLECDDPDLFNWLMNHGKPADAELEMMVRLIQTRNRERGPVAI”: the protein production entry is on record as “not failed”.

With “MDINYERPDPYYLLNKIDKEEKNKNRGKLKIFFGYAAGVGKTYAMLRAAHYMKELGKDIVIGYIEPHARMDTMSLTKGLPQIPVKNIDYKGVILREFDVDKALLRKPEIILVDELAHTNAKSQRNKKRWKDIEELLDAGIDVYTTLNVQHIESLNDIVANITHVSVRETIPDKVFDDADKVELIDIEPDELLKRFTDGKIYRKEQVKRAFNNFFTKNNLYALREIALRRTADRVNFEIEIARLSKGQITVMATSDQILACIGTSPSSARIIRTAARMAESYHSKWIALYVDTGRSLGKADKETLNANFNLVELLGGELVTVHGENVADQIIRYAELRNTTKIVIGKNHKRTGTLLHFYAKDVVDKLMDSNSYIDVYMIPNSSYYRDHKNSILSKISIQHKGSVKDVLKAIIIMAITTDIAELFSYMGFKDVNVIMIFILGVIIVYMATKGQIMGIISSIAAVLVFNYRFTEPKNSFIVYDKSYLVTFPIMMIVAFIIGSLTNKVQKEAQDSNMREKRTQTLYIVSGKLLSAVGTSEVVSIGIKYISRLVNRNVICYLADTSNKLSTPFVYKKDKGAKEEIIMSKDENAAAYWTFLNGKESGCGTSTFYRAKGYYIPIKIKNKVLGVIGVSCPSGPLRPQKKAVVDTVTGQIAIALDREILSKEQEKSKVEIERERLRSNLLRSISHDLRSPLAGIKGAASTILENGELIDEKRKQELINGIYEDTEWLIRLIENLLSMTKFDEGNTKIKKDVELVEEVVSEAVQRSSKYFKNHKIKVSVPEDVIMVSMDGSLIEQVIINLLDNASKFSPKGSTIEIKVYEKKKDVVFEIIDEGQGISEDILPNIFDRFFTNGSKISDSRRGVGLGLAICKSIVEAHGGKIEAVNKGSGGAIFKFNIPKEL”, the protein production entry is “failed”.

Regarding “MDISGRDVETRLTLAREFMSGVDELPTVPDIVLRIAGKLNDPDVAIDEVADLLLQDQVLTARVVHLANSPLYSAARPISSIRDAVIYLGLDLLREAIFTCAIVDLFKTGKGPLNRSTLWAHSLGVARIAKLIAERTGFLNPVNVYVAGLLHDVGEVFINFFRGKEFSQVVTLVDEEKITFGQAEERLFGTSHCEVGFALAKRWSLNEFICDTILYHHDIEAVPYKQAAIVAMVAFADEYCTLRRLGFEGHKPVDSVRTLLENHPSWGVIRRSLGGSDFDEKLIVAELDSSIVEIRAAVDELFLL”, the protein production result is “failed”.

In the case of “MDISILQAVLIGLWTAFCFSGMLLGLYTNRCIVLSLGVGVILGDIQTALAVGAISELAYMGFGVGAGGTVPPNPIGPGIFGTLMAITTAGTKGKITPEAALALSTPIAVGIQFLQTATYTAFAGAPETAKKALQAGNFRGFKIAANGTIWAFAGLGFGLGVLGALSTQTLTDLFALIPPVLLNGLTLAGKMLPAIGFAMILSVMAKKELIPYILLGYVLAVYFGLPVLTPTANGDGVLTSVATNSVLGVPTIGVAIIATIFALLDIFRKPAAPTKETKTEGDNQDDWI”, the protein production entry was “failed”.

Take “MDITEKLRLITRNAEEVVTEEELRQLIETKEKPRAYVGYEPSGEIHLGHMMTVQKLMDLQEAGFEIIVLLADIHAYLNEKGTFEEIAEVADYNKKVFIALGLDESRAKFVLGSEYQLSRDYVLDVLKMARITTLNRARRSMDEVSRRKEDPMVSQMIYPLMQALDIAHLGVDLAVGGIDQRKIHMLARENLPRLGYSSPVCLHTPILVGLDGQKMSSSKGNYISVRDPPEEVERKIRKAYCPAGVVEENPILDIAKYHILPRFGKIVVERDAKFGGDVEYASFEELAEDFKSGQLHPLDLKIAVAKYLNMLLEDARKRLGVSV”: the protein production result is “not failed”.

As for “MDIVTNKIVVEKYNFETTMEENQPFENKIELEVHEVEPVDGNVELMAKGKIFKITIPFLLVLENFRIDGRISRIIQLKDFFGQFSDLEAKDVEGLSNPLIDYIKRLTYDVTEIAFDEPGVSLDF”, the protein production result was “failed”.

As to “MDIYIGFSLQIYVIQVRRKPTENLQKTYKKSGNGILFICLIANCEICGTNLLTSELYIPTFTSKTKVMKKRVSAVVIVLVCLGGVACIKTLSTSSVGLPQLAFDNIEALASGESSAYRCYGIGDVDCHGDKVDKMYSGYSLK”, the protein production result was “failed”.

As to “MDKDYYKIMGVSQDASEKDIKMAYRKLARKYHPDISKEPDAEERFKEMAEAYEVLKDPKKRSEYDQYLKYKEFNPQSDGFTGRRTQEQPFQEFHFDSDFFETLFGHSRYQQQPMTGQNYHGKITISLEEAYHGAVKNLQVPVEQGTETKIQTLKVKIPAGVKSGQQIRLAGQGGSGSGGGARGDLYLTVEVMKHPIFDVMENDIYLTLPVTPWEAALGATVVIPTLAGKIDLKIPPGSQGGQKLRIKNRGLPGSPPGNQYVLLKIITPPAQTEEAKALYKKMAEVMPYNPRKTMGV”, the protein production entry was “failed”.

“MDKEQRNIVVFNASKRELFTSSSGYKSLQKKLRAQWKIQSIKEELTLEKLQGVKLWITAGPREKFTAAELEVLKQYLDSGGALLVMIGEGGELKYDTNINFLLEEFGIMVNNDAVIRNVYYKYFHPKEALVSNGVLNREISRAAGKVVTGVIDEENTGNNSQALTFVYPYGATLNVMKPAVAILSTGSVCFPLNRPVLAFHHSKNAGKLAVLGSCHMFSDQYLDKEENSRIMDVVFQWLTTDSIHLNQIDAEDPEITDYMMLPDTGSLSERLRVCLQEGDENPRDFTSLFDMSLLKLHTNTLPSVLDAYKQLNVKHEALQLITPQFETPLPPLQPAVFQPAFRDLPPPMLDLFDLDETFSSEKVRLAQLSNKCTDDDLEFYVRKCGDILGVTGNLDKDKRDAKHILEHVFFQVVEFKKLNEEHDVDTAEARFSMY”: the protein production result is given as “not failed”.

Source of the values: a protein production outcome set (Wang et al. 2014).
